The source of these data is patent publication US20240376149A1, “Novel Modulators of GABABR1a” (VIB VZW, priority 2021, published 2024).

In assay [1] the target is T1, Sushi domain 1 of the human GABA B1a receptor (human, UniProt Q9UBS5 26-96).
T1 construct: Purified recombinant protein from E. coli; also called SD1; GABABR1a-SD1
Nature of the assay: ITC, peptide titrated into purified SD1. Here is the method:
(§1) The Sushi-1 protein was dialysed overnight to PBS buffer and diluted to 30 μM in the same buffer. The peptides were resuspended in PBS at a stock concentration of 3 mM and diluted further in the same buffer to 300 μM. ITC experiments were performed on a Microcal ITC200 device. Titrations comprised 26×1.5 μL injections of peptide into protein, with 90 s intervals. An initial injection of ligand (0.5 μL) was made and discarded during data analysis. The data were fitted to a single binding site model using the Microcal LLC ITC₂₀₀. Original software provided by the manufacturer.

The target of assay [2] is T1, Sushi domain 1 of the human GABA B1a …. The experiment in a line: FP competition vs FITC-9mer on purified SD1. Here is the method:
To screen for GABABR1a binders using unlabelled test compounds, the assay was turned into a competition assay using FITC-9mer. […] To validate this inhibitor assay, the IC50 values were determined of the 17-mer, 9-mer, 5-mer as well as those from 3 negative controls: 10-mer, scrambled 17-mer and a scrambled 9-mer (FIG. 2).
Based on structural information of DIYWS-SD1 and DIWWS-SD1 co-crystals, 48 peptides containing non-natural residues were manually designed and checked for binding to the GABABR1a SD1 in the FP assay at a concentration of 50 μM. These non-natural peptides were categorized based on the IC50 values obtained in the FP assay (Table 3). […] The listed non-natural 5-mers all share D-aspartate was on position 1 (residue position 4 of the 9-mer), L-isoleucine on position 2 (residue position 5 of the 9-mer), L-tryptophane on position 4 (residue position 7 of the 9-mer) and L-serine on position 5 (residue position 8 of the 9-mer), while position 3 is selected from the list consisting of L-tyrosine, isoethylmethyl-benzene, 6-chloro-3-methyl-1H-indole, methylcyclohexane, ethylcyclohexane, 2-naphthalene, ethylbenzene, 1,1-difluoro-4-cyclohexyl, 4-methyl-1-methoxy-2-methylbenzene, 1-chloro-4-methylbenzene, 4-methylphenyl-methanol, 3-methylbenzoic acid and 4-methylaniline.

Assay [3] concerns the target T2, Ectodomain of GABABR1a comprising SD1, expressed on HEK293 cells with N-terminal His-tag (human, UniProt Q9UBS5 20-591, limits assumed).
T2 construct: extracellular domain; also called GABABR1a-SD1 (on cells); GABABR1a ectodomain
Nature of the assay: flow cytometry competition vs biotin-9mer on HEK293 cells expressing GABABR1a ectodomain. Here is the method: Next, the top ranking compounds were tested in a cell-based binding assay. HEK293 cells were transformed to express the ectodomain of GABABR1a comprising SD1. In this cell-based assay, SD1 is expressed on the GABABR1a ectodomain and can adopt a more physiological conformation, compared to the purified SD1 protein used in the primary assay (FP assay). Before testing the active compounds, it was confirmed that 9-mer (tagged with Biotin) binds specifically to cells expressing GABABR1a-SD1 and not GABABR1b.
HEK293 were transfected with plasmids encoding the ectodomain of GABABR1a (as in Rice et al., 2019), carrying a His-tag at the N-terminal. After 24 h of expression, cells were harvested and adjusted to a concentration of 1×10^6 cells/mL in ice-cold 2% FBS/PBS. Incubation with each peptide (in dose-response curve) was carried out at 4° C. for 1 h, followed by incubation with the biotion-9mer (10 μM) peptide during 30 min. Detection antibodies recognizing either His protein or biotin were added for a period of 30 min. The assay plate containing the cells was loaded into the Attune NxT Cytometer, parameters were adjusted accordingly with the cell type and signal intensity. In each experiment, positive and negative control were added to the plate.

Assay [4] has as its target T1, Sushi domain 1 of the human GABA B1a …. Nature of the assay: ITC, peptide titrated into purified SD1. Here is the method:
First, we wondered whether the wild-type sAPP 9-mer peptide would be the optimal sequence in terms of SD1 binding or whether sequence variants of the sAPP 9-mer would have improved binding to the GABABR1a-SD1. Therefore a panel of single and double sAPP 9-mer mutants was generated. An alanine scan was performed for the residues on position 1 to position 7. Based on an ITC assay, these single mutant peptides bound the SD1 with the same or slightly higher Kd (Table 1). Also the double mutants VIB_P04, VIB_P05 and VIB_P19 bound with a similar Kd to SD1 compared to the wild-type 9-mer. We have also tested the effect of the D-isomer of the amino residues on position 1 to 4, in single or multiple combinations. None of the mutations had strong effects on the measured Kd (Table 1). We therefore conclude that the wild-type sAPP 9-mer is already optimized but that many variants bind as good to SD1 and thus will modulate GABABR1a in a similar manner.
as §1
The source holds these as a separate data set. (In general: Isothermal titration calorimetry measures the heat released or taken up as one component is titrated into another.)

Assay [5] shares this target. The experiment in a line: FP competition vs FITC-9mer on purified SD1. Here is the method:
Next, 35 variants of the DVWWG 5-mer peptide containing natural residues were tested in the above described FP assay. The peptides were tested at a concentration of 50 μM.
To determine if the peptides of this application were able to disrupt the SD1-9-mer complex, each peptide (in single point or dose-response curve) tested was incubate with SD1 protein for 1 h at RT. After this initially incubation, FITC-9mer was added to the previous mix and incubated during 2 h at RT. The signal intensity was measure in an appropriate plate reader using the following settings: Number of flashes per well: 200; Excitation: F482-16; Dichroic filter: FLP 504; Emission A F530-40; Gain A: 738, Gain B: 736. The assay was conducted in a 384-well plate.
The source holds these as a separate data set.

Where two headings read alike, the source gives them in different places. *1 amine or outer side, *2 acyl side, *3 side chain or, on linkers, in order; H or OH if unused. Where no end group is shown, it is not given here. [ ]: non-standard residue; d: D form. NEtW = N-ethyl-tryptophan (F149), CCN([C@@H](Cc1c[nH]c2ccccc12)C(=O)[*:2])[*:1]; F182 = not defined here; F72 = not defined here

T2 sequence (Q9UBS5 20-591 limits assumed): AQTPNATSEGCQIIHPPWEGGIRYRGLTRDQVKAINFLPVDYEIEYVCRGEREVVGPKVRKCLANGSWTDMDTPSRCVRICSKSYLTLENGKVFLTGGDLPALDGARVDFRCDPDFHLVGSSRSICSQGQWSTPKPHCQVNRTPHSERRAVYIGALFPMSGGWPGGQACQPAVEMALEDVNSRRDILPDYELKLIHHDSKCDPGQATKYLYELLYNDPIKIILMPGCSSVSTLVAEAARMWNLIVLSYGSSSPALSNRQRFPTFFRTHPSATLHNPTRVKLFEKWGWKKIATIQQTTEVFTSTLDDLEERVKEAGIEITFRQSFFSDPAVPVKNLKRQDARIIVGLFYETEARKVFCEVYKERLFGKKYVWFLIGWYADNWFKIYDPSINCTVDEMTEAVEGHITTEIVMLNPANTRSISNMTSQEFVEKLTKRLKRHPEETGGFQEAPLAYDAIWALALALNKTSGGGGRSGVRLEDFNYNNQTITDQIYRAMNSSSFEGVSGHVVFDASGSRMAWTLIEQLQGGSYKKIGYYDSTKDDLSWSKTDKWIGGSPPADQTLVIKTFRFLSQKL
T1 sequence (Q9UBS5 26-96 limits assumed): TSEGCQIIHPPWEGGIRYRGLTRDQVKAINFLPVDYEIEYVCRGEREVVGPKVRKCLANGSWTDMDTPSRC

B1: VIB-0068907 (peptide)
peptide: [dD]I[F182]WS
modifications: not fully specified; reading uncertain
notes: Peptidomimetic 5-mer; X marks the non-natural residue
The Kd is the constant that tells how readily two partners part at equilibrium. As usually defined, the IC50 is the midpoint of a concentration-inhibition curve. Higher therefore signals lower potency. Take B1: in assay [1], the equilibrium dissociation constant (Kd) amounted to 2470 nM. Moreover, in assay [2], the “% inhibition 50 µM” value came out at 86.2% and the IC50 stood at 12.6 µM. In assay [3], the “% inhibition 100 µM” value came to 47.2% and the IC50 came out at 49.2 µM.

B2: VIB-0068895 (peptide)
peptide: DIXWS
modifications: not fully specified; D-aspartic acid at position 1; position 3 (X) is the non-natural residue F195 = 2-naphtalene
notes: as for B1
B2 showed a Kd in assay [1] of 1390 nM. Further, in assay [2], the “% inhibition 50 µM” value was found to be 96.3% and the IC50 was 11.1 µM. In assay [3], the “% inhibition 100 µM” value worked out at 77% and the IC50 amounted to 43.3 µM.
In the case of DDS[dD]VWWGG (Printed as DDS{D-ASP}VWWGG) [VIB_P11], in assay [4], the Kd worked out at 6.21 µM.

B3: VIB-0068911 (peptide)
peptide: [dD]I[F72]WS
modifications: not fully specified; reading uncertain
notes: as for B1
For B3, the affinity in assay [1], expressed as Kd, was 540 nM. Further, in assay [2], the “% inhibition 50 µM” value amounted to 98.1% and the 50% inhibitory concentration (IC50) turned out to be 6.54 µM. In addition, in assay [3], the “% inhibition 100 µM” value was found to be 90% and the IC50 is 38 µM.

B4: VIB-0068910 (peptide)
peptide: DIXWS
modifications: D-aspartic acid at position 1; position 3 (X) is the non-natural residue F70 = ethylbenzene
notes: as for B1
In assay [1], B4 gave a Kd of 2900 nM. Moreover, in assay [2], the “% inhibition 50 µM” value came out at 88.6% and the IC50 came to 11.9 µM. In assay [3], the “% inhibition 100 µM” value was 54.2%.

B5: VIB_P33 (peptide)
peptide: DVWWG
notes: also called DVWWG 5-mer; wild-type 5-mer
For the molecule B5, the Kd stood at 9.09 µM in assay [4] and 9090 nM in assay [1]. Further, the “% inhibition 50 µM” value in assay [5] worked out at 66%.
As for DIWWS (also called VIB_34; DIWWS) [VIB_P34], the Kd in assay [1] amounted to 1020 nM. The “% inhibition 50 µM” value in assay [5] came out at 81.9%.
Turning to DVHWS [VIB_P23], the Kd in assay [1] came to 25100 nM.

B6: VIB-0068904 (peptide)
peptide: [dD]I[NEtW]WS
notes: Peptidomimetic 5-mer; position 3 is written W for N-ethyl-tryptophan
B6: the Kd in assay [1] was 1020 nM. The “% inhibition 50 µM” value in assay [2] was 26.7%.
In turn, DIHWG [VIB_P36] returned a dissociation constant Kd in assay [1] of 18400 nM. In addition, the “% inhibition 50 µM” value in assay [5] turned out to be 25.5%.
The molecule PIHWS [VIB_P45] gave a Kd in assay [1] of 38000 nM.
As to [dD]DSDVWWGG [VIB_P08], the Kd in assay [4] came out at 6.45 µM.
The same measure, in the same setting: the figure for DASDVWWGG [VIB_P01] is 12.2 µM; for AASDVWWGG [VIB_P19] it is 18.1 µM.
The same measure, in the same setting: the figure for DDADVWWGG [VIB_P02] is 3.68 µM.
The same measure, in the same setting: the figure for DASAVWWGG [VIB_P04] is 5.85 µM; for DDSAVWWGG [VIB_P03] it is 10 µM; for ADSDVWWGG [VIB_P12] it is 7.58 µM.

B7: VIB-0068903 (peptide)
peptide: DIXWS
modifications: D-aspartic acid at position 1; position 3 (X) is the non-natural residue F141 = ethylcyclohexane
notes: as for B1
B7 showed a Kd in assay [1] of 930 nM. In addition, in assay [2], the “% inhibition 50 µM” value amounted to 93.9% and the half-maximal inhibitory concentration (IC50) worked out at 8.22 µM. Also, in assay [3], the “% inhibition 100 µM” value is 76% and the IC50 is 154 µM.

B8: VIB-0068896 (peptide)
peptide: DIXWS
modifications: D-aspartic acid at position 1; position 3 (X) is the non-natural residue F44 = (4-methylphenyl)methanol
notes: as for B1
B8 showed an equilibrium dissociation constant (Kd) in assay [1] of 7460 nM. In assay [2], the “% inhibition 50 µM” value was 56.6% and the half-maximal inhibitory concentration (IC50) amounted to 48 µM.
Regarding DD[dS]DVWWGG (Printed as DD{D-SER}DVWWGG) [VIB_P10], the dissociation constant (Kd) in assay [4] amounted to 8.47 µM.

B9: VIB-0068905 (peptide)
peptide: DIXWS
modifications: D-aspartic acid at position 1; position 3 (X) is the non-natural residue F15 = methylcyclohexane
notes: as for B1
Consider B9, for which, in assay [1], the dissociation constant (Kd) amounted to 250 nM. In assay [2], the “% inhibition 50 µM” value is 94.8% and the 50% inhibitory concentration (IC50) was found to be 8.11 µM. In assay [3], the “% inhibition 100 µM” value was found to be 68.3% and the IC50 stood at 78.8 µM.
On to DDSDVWW [VIB_P06], for which, in assay [4], the dissociation constant (Kd) stood at 25.8 µM.

B10: VIB-0068894 (peptide)
peptide: DIXWS
modifications: D-aspartic acid at position 1; position 3 (X) is the non-natural residue F126 = 6-chloro-3-methyl-1H-indole
notes: as for B1
B10: the Kd in assay [1] is 340 nM. Further, in assay [2], the “% inhibition 50 µM” value is 96.8% and the IC50 is 7.12 µM. Besides, in assay [3], the “% inhibition 100 µM” value was 84.2% and the concentration for half-maximal inhibition (IC50) was found to be 28.7 µM.
